Ends that are not written are not given here.
Tests used:
MBP-ElxP = MBP-ElxP activity assay by MALDI-TOF MS; type: biochemical, Staphylococcus epidermidis; conditions: non-cognate NisA and NisA mutants
Description: A typical activity assay consisted of 50 mM Tris HCl pH 8.0, 50 μM peptide, 5 μM MBP-ElxP in a final volume of 100 μL. The sample was incubated for 2 h at room temperature. To monitor cleavage activity, samples were desalted using a zip tip concentrator (Millipore), mixed in a 1:1 ratio with sinapinic acid, and spotted on a MALDI-TOF Bruker plate. Ion intensities for the resulting precursor peptide, leader peptide and core peptide were normalized and the proteolytic efficiency was measure as the amount of substrate left after cleavage reaction (Table 1). Reactions were performed with tagged enzyme and substrates unless otherwise noticed.

His6-NisA = His6-NisA (UniProt P13068)
Pyr-AAI = system: T1, Pyr-AAI
T1 sequence: AAI

Pyr-AAAVK = system: T2, Pyr-AAAVK
T2 sequence: AAAVK

OBu-AGPAIR = system: T3, OBu-AGPAIR
T3 sequence: AGPAIR

Pyr-AA = system: T4, Pyr-AA
T4 sequence: AA

Pyr-LGPAIK = system: T5, Pyr-LGPAIK
T5 sequence: LGPAIK

Pyr-AAIV = system: T6, Pyr-AAIV
T6 sequence: AAIV

Pyr-APVLA = system: T7, Pyr-APVLA
T7 sequence: APVLA

Pyr-A = system: T8, Pyr-A
T8 sequence: A

[1] = biological target: HalM1-modified HalA1-GDVQAE
[2] = biological target: NisA-I1C (with GDVQAE), P13068
[3] = biological target: ProcA1.7-T1C (with GDVQAE)
[4] = biological target: CylLL″ with a 5-amino acid peptide remaining from the leader
[5] = biological target: CylLS″ with a 5-amino acid N-terminal peptide
[6] = biological target: His6-ProcA1.7 with GDVQAE inserted between the His6-tag sequence and ProcA1.7
[7] = biological target: peptides with Glu or Lys in the P1′ position (after GDVQAE)
His6-NisA-GDVQAE, P13068 = biological target: T9, His6-NisA-GDVQAE, P13068
T9 chain: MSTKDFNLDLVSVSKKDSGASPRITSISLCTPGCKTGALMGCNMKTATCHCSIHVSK

[8] = biological target: HalM2-modified HalA2-GDVQAE

wild type NisA: non-cognate lanthipeptide precursor peptide of nisin, His6-tagged (MSTKDFNLDLVSVSKKDSGASPRITSISLCTPGCKTGALMGCNMKTATCHCSIHVSK; cysteine pairing not given here; also: His6-tagged, tag position not given here)
cleavage by ElxP (MBP-ElxP): does not cleave

MBP-ElxP
MBP-ElxP cleavage result by MALDI-TOF MS (+++ complete, ++ partial, + marginal cleavage) (His6-ElxA L-17A): +++
cleavage by ElxP, MALDI-TOF MS (His6-NisA): ElxP does not cleave wild type NisA
MBP-ElxP cleavage result by MALDI-TOF MS (+++ complete, ++ partial, + marginal cleavage) (His6-ElxA D-18A): +++
MBP-ElxP cleavage result by MALDI-TOF MS (+++ complete, ++ partial, + marginal cleavage) (His6-ElxA D-5A): +
MBP-ElxP cleavage result by MALDI-TOF MS (+++ complete, ++ partial, + marginal cleavage) (His6-ElxA F-19A): ++
MBP-ElxP cleavage result by MALDI-TOF MS (+++ complete, ++ partial, + marginal cleavage) (His6-ElxA Q-1A): +
fold reduction of the ElxP catalytic efficiency against wild type ElxA (His6-ElxA Q-1A): reduction of ˜14-fold in the ElxP catalytic efficiency
MBP-ElxP cleavage result by MALDI-TOF MS (+++ complete, ++ partial, + marginal cleavage) (His6-ElxA L-4A): +
fold reduction of the ElxP catalytic efficiency against wild type ElxA (His6-ElxA L-4A): reduction of ˜14-fold in the ElxP catalytic efficiency
MBP-ElxP cleavage result by MALDI-TOF MS (+++ complete, ++ partial, + marginal cleavage) (His6-ElxA N-3A): +++
MBP-ElxP cleavage result by MALDI-TOF MS (+++ complete, ++ partial, + marginal cleavage) (His6-ElxA N-16A): +++
MBP-ElxP cleavage result by MALDI-TOF MS (+++ complete, ++ partial, + marginal cleavage) (His6-ElxA wt): +++
catalytic efficiency of cleavage (HPLC, leader peptide formation) (His6-ElxA wt): MBP-ElxP cleaved the wild type ElxA with an efficiency of ˜240 M-'s 1
MBP-ElxP cleavage result by MALDI-TOF MS (+++ complete, ++ partial, + marginal cleavage) (His6-ElxA P-2A): ++
efficiency of leader peptide removal (HPLC kinetics, FIG. 3D) (His6-ElxA P-2A): did not obviously decrease the efficiency of MBP-ElxP to remove the N-terminal leader peptide from ElxA

His6-ElxO
Relative (kcat/Km) (Glx-AAIVK): < 0.01
kcat/Km (reduction by His6-ElxO, NADPH absorbance at 340 nm) (Glx-AAIVK): < 0.03 M⁻¹ s⁻¹
Relative (kcat/Km) (Pyr-AAIAK): 0.65
kcat/Km (reduction by His6-ElxO, NADPH absorbance at 340 nm) (Pyr-AAIAK): 1.59 M⁻¹ s⁻¹
Relative (kcat/Km) (Pyr-NAIVK): 3.13
kcat/Km (reduction by His6-ElxO, NADPH absorbance at 340 nm) (Pyr-NAIVK): 7.6 M⁻¹ s⁻¹
Relative (kcat/Km) (Pyr-AAI): 0.02
kcat/Km (reduction by His6-ElxO, NADPH absorbance at 340 nm) (Pyr-AAI): 0.06 M⁻¹ s⁻¹
reduction by His6-ElxO with NADPH, high-resolution LC-MS (lactocin S): confirming the formation of dihydrolactocin S
Relative (kcat/Km) (Pyr-AAIVA): 0.55
kcat/Km (reduction by His6-ElxO, NADPH absorbance at 340 nm) (Pyr-AAIVA): 1.33 M⁻¹ s⁻¹
Relative (kcat/Km) (Pyr-AAAVK): 0.12
kcat/Km (reduction by His6-ElxO, NADPH absorbance at 340 nm) (Pyr-AAAVK): 0.29 M⁻¹ s⁻¹
Relative (kcat/Km) (Pyr-MAIVK): 6.4
kcat/Km (reduction by His6-ElxO, NADPH absorbance at 340 nm) (Pyr-MAIVK): 15.5 M⁻¹ s⁻¹
reduction by His6-ElxO with NADPH, LC-MS (OBu-AGPAIR): All the peptides were reduced as confirmed by LC-MS analysis
Relative (kcat/Km) (Pyr-AAIVK): 1
kcat/Km (reduction by His6-ElxO, NADPH absorbance at 340 nm) (Pyr-AAIVK): 2.43 M⁻¹ s⁻¹
reduction by His6-ElxO with NADPH, LC-MS (Pyr-BPVLAAVAVAKKK): All the peptides were reduced as confirmed by LC-MS analysis
Relative (kcat/Km) (Obu-RAIVK): 0.62
kcat/Km (reduction by His6-ElxO, NADPH absorbance at 340 nm) (Obu-RAIVK): 1.51 M⁻¹ s⁻¹
Relative (kcat/Km) (Pyr-AAIVKBBIKAAKK): 5.83
kcat/Km (reduction by His6-ElxO, NADPH absorbance at 340 nm) (Pyr-AAIVKBBIKAAKK): 14.2 M⁻¹ s⁻¹
reduction by His6-ElxO with NADPH (Pyr-AAVLK): His6-ElxO reduced both peptides
Relative (kcat/Km) (Pyr-DAIVK): 0.12
kcat/Km (reduction by His6-ElxO, NADPH absorbance at 340 nm) (Pyr-DAIVK): 0.29 M⁻¹ s⁻¹
Relative (kcat/Km) (Pyr-AA): < 0.01
kcat/Km (reduction by His6-ElxO, NADPH absorbance at 340 nm) (Pyr-AA): < 0.03 M⁻¹ s⁻¹
Relative (kcat/Km) (Obu-AAIVK): 0.38
kcat/Km (reduction by His6-ElxO, NADPH absorbance at 340 nm) (Obu-AAIVK): 0.92 M⁻¹ s⁻¹
Relative (kcat/Km) (Pyr-RAIVK): 2.26
kcat/Km (reduction by His6-ElxO, NADPH absorbance at 340 nm) (Pyr-RAIVK): 5.5 M⁻¹ s⁻¹
reduction by His6-ElxO with NADPH (Pyr-LGPAIK): His6-ElxO reduced both peptides
Relative (kcat/Km) (Pyr-PAIVK): 0.05
kcat/Km (reduction by His6-ElxO, NADPH absorbance at 340 nm) (Pyr-PAIVK): 0.13 M⁻¹ s⁻¹
Relative (kcat/Km) (Pyr-AAIV): 0.47
kcat/Km (reduction by His6-ElxO, NADPH absorbance at 340 nm) (Pyr-AAIV): 1.13 M⁻¹ s⁻¹
reduction by His6-ElxO with NADPH, LC-MS (Pyr-APVLA): All the peptides were reduced as confirmed by LC-MS analysis
Relative (kcat/Km) (Pyr-KAIVK): 1.74
kcat/Km (reduction by His6-ElxO, NADPH absorbance at 340 nm) (Pyr-KAIVK): 4.22 M⁻¹ s⁻¹
Relative (kcat/Km) (Pyr-A): < 0.01
kcat/Km (reduction by His6-ElxO, NADPH absorbance at 340 nm) (Pyr-A): < 0.03 M⁻¹ s⁻¹

B1: His6-CylA-27-412 (protein)
chain: MGSSHHHHHHSQDPNSLSNNISFFIDNSQTTAIEEIESELSSEKVDYIQEIGLVSFKNLDDSDRKFIGKYFNVSEGKKLPDFKPEEVNSSILNINILNKDFKSFNWPYKKILSHIDPVKEQLGKDITIALIDSGIDRLHPNLQDNNLRLKNYVNDIELDEYGHGTQVAGVIDTIAPRVNLNSYKVMDGTDGNSINMLKAIVDATNDQVDIINVSLGSYKNMEIDDERFTVEAFRKVVNYARKNNILIVASAGNESRDISTGNEKHIPGGLESVITVGATKKSGDIADYSNYGSNVSIYGPAGGYGDNYKITGQIDAREMMMTYYPTSLVSPLGKAADFPDGYTLSFGTSLATPEVSAALAAIMSKNVDNSKDSNEVLNTLFENADSFIDKNSMLKYKEVRIK
cleavage by CylA, MALDI-TOF MS [1]: The modified peptide was successfully digested upon incubation with CylA
cleavage by CylA [2]: CylA cleanly removed the leader peptide from both substrates
cleavage by CylA, MALDI-TOF MS (ProcA1.7-GDVQAE-T1F): CylA specifically cleaved after Glu-1 for all three mutant peptides
cleavage by CylA [3]: CylA cleanly removed the leader peptide from both substrates
cleavage by CylA, MS (modified CylLL): the enzyme also removed the entire leader peptides
cleavage by CylA, MALDI-TOF MS (linear CylLL): it also removed the leader peptides from linear CylLL and CylLS
cleavage by CylA, MALDI-TOF MS (His6-ProcA1.7-GDVQAE): the leader peptides of both His6-ProcA1.7-GDVQAE and His6-NisA-GDVQAE were successfully removed
cleavage by CylA, MALDI-TOF MS (ProcA1.7-GDVQAE-T1W): CylA specifically cleaved after Glu-1 for all three mutant peptides
cleavage by CylA, MALDI-TOF MS [4]: the 5 amino acids were successfully removed
cleavage by CylA, MALDI-TOF MS [5]: the 5 amino acids were successfully removed
cleavage by CylA [6]: Incubation with CylA indeed resulted in cleavage and removal of the His6-tag sequence
cleavage by CylA, MALDI-TOF MS (ProcA1.7-GDVQAE-T1G): CylA specifically cleaved after Glu-1 for all three mutant peptides, albeit with a lower efficiency for the T-1G mutant
cleavage by CylA, MALDI-TOF MS (linear CylLS): it also removed the leader peptides from linear CylLL and CylLS
cleavage by CylA [7]: it did not accept Glu or Lys in the P1′ position
cleavage by CylA, MALDI-TOF MS (His6-NisA-GDVQAE, P13068): the leader peptides of both His6-ProcA1.7-GDVQAE and His6-NisA-GDVQAE were successfully removed
cleavage by CylA, MS (modified CylLS): the enzyme also removed the entire leader peptides
cleavage by CylA, MALDI-TOF MS [8]: the leader peptide was successfully removed
